Laboratory results as given in patent US20210017277A1 (US Dept. of Health and Human Services, published 2021).

Target: T1, Biotinylated Human Siglec-3/CD33 Protein, Avi Tag (Acro Biosystems) (human, UniProt P20138 18-259, biotinylated (Avi Tag))
T1 construct: Bought reagent; also called biotinalated Siglec-3; not shown: Avi Tag
Assay: flow cytometry: CAR-transduced T cells stained with biotinylated human Siglec-3/CD33 protein, then Streptavidin-PE
Procedure: Surface expression of CD33 CAR-transduced T cells was determined by flow cytometry using either protein-L (Themo Fisher) or a Biotinylated Human Siglec-3/CD33 Protein (Acro Biosystems, Newark, Del., USA) followed by incubation with Streptavidin-PE (BioLegend, San Diego, Calif., USA). CD123 CAR expression were detected with protein-L. Expression of CD33, CD123 and other cell surface markers were detected using the following antibodies from eBioscience (Thermo Fisher): CD33, CD45, CD3, CD8a, CD4, CD10.
For CD33 CAR detection with Biotinylated Human Siglec-3/CD33 Protein: CAR detection with: add 2 ul of Biotinylated Human Siglec-3/CD33 Protein, [Avi Tag (Avitag™) Acro Biosystems, Newark, Del., USA], incubate for 20 min, wash once and incubate with 0.5 μl of Streptavidin-PE, incubate for additional 10 min, wash once, subject for FACS analysis.

T1 sequence (P20138 18-259 limits assumed): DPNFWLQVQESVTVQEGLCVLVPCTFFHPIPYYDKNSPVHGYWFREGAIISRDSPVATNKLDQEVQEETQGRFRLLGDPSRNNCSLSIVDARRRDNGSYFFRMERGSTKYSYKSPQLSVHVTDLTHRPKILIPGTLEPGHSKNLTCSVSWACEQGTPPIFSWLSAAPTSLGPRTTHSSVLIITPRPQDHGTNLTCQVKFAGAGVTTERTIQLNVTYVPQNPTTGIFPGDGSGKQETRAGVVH

binding result: binds
B1: CD33Hu195-CD28Z CAR (other)
chain: QVQLVQSGAEVKKPGSSVKVSCKASGYTFTDYNMHWVRQAPGQGLEWIGYIYPYNGGTGYNQKFKSKATITADESTNTAYMELSSLRSEDTAVYYCARGRPAMDYWGQGTLVTVSSGGGGSGGGGSGGGGSDIQMTQSPSSLSASVGDRVTITCRASESVDNYGISFMNWFQQKPGKAPKLLIYAASNQGSGVPSRFSGSGSGTDFTLTISSLQPDDFATYYCQQSKEVPWTFGQGTKVEIKSGAAAIEVMYPPPYLDNEKSNGTIIHVKGKHLCPSPLFPGPSKPFWVLVVVGGVLACYSLLVTVAFIIFWVRSKRSRLLHSDYMNMTPRRPGPTRKHYQPYAPPRDFAAYRSRVKFSRSADAPAYQQGQNQLYNELNLGRREEYDVLDKRRGRDPEMGGKPRRKNPQEGLYNELQKDKMAEAYSEIGMKGERRRGKGHDGLYQGLSTATKDTYDALHMQALPPR
notes: CAR on the surface of transduced human T cells; also called CD33.2-28z; CD33.2-CD28z
